Reference: patent publication US20150160219

Target: T1, Indicator molecule of Example 3 (synthetic peptide with MMP-9 sequence, HNE sequence, DNP, fluorescent label and terminal biotin via PEG)
T1 chain: GPQGIFGQGAAPVA

B1: human neutrophil elastase (HNE) (Lee biotech, 342-40) (protein)
chain: IVGGRRARPHAWPFMVSLQLRGGHFCGATLIAPNFVMSAAHCVANVNVRAVRVVLGAHNLSRREPTRQVFAVQRIFENGYDPVNLLNDIVILQLNGSATINANVQVAQLPAQGRRLGNGVQCLAMGWGLLGRNRGIASVLQELNVTVVTSLCRRSNVCTLVRGRQAGVCFGDSGSPLVCNGLIHGIASFVRGGCASGLYPDAFAPVAQFVNWIDSIIQ
Question: How did the “detectable limit of the lateral flow cleavage assay” value turn out when B1 was run?
Answer: approximately 62.5-125 ng/ml
